In PMC4596520 one finds Kd data, which are given here for 31 substances.

Common to all, as to experiment: SPR
Conditions in all cases: read off a plot

For test [1], the target named is hexa-His-tagged recombinant soluble human Fcγ receptor IIa, 134R (UniProt P12318).
Test [2] addresses hexa-His-tagged recombinant soluble human Fcγ receptor IIIa, 158F (UniProt P08637).
Test [3] has as its target hexa-His-tagged recombinant soluble human Fcγ receptor I (UniProt P12314).
Sequence of UniProt P12314 (P12314 16-292): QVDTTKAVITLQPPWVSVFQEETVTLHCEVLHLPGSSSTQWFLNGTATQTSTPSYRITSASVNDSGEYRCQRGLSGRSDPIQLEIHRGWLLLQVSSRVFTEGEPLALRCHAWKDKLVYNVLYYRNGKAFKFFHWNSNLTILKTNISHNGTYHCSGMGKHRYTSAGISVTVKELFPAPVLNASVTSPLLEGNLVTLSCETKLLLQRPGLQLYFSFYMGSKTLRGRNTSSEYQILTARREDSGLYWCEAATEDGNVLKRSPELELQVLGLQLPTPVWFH

Sequence of UniProt P08637 (P08637 17-208): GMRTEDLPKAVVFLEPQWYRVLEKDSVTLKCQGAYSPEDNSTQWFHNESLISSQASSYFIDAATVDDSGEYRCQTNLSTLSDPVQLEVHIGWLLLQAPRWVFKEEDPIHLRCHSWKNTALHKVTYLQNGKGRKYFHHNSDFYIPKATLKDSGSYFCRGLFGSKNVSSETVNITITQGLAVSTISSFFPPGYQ
Sequence of UniProt P12318 (P12318 34-217 H167R): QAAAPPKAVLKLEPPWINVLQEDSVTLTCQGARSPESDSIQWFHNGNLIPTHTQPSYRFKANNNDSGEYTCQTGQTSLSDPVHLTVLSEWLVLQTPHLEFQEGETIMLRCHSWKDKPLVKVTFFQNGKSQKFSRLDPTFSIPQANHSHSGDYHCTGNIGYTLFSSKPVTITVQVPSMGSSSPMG

As for “fucosylated anti-CD20 chimeric IgG1 rituximab with a wild-type Fc region Y296D”, the results for the Kd in test [1] (parent: est. 18), in test [2] (parent: est. 17) and in test [3] (parent: est. 11) were 12 ×10^-7 M, 17 ×10^-7 M and 11 ×10^-8 M, respectively.
With “nonfucosylated anti-CD20 chimeric IgG1 rituximab with a wild-type Fc region Y296E”, the Kd – broadly, the equilibrium constant for the complex coming apart – was 9 ×10^-7 M in test [2] (parent: est. 5.0) and 2.7 ×10^-8 M in test [3] (parent: est. 2.3).
As to “nonfucosylated anti-CD20 chimeric IgG1 rituximab with a wild-type Fc region Y296F”, the Kd in test [1] (parent: est. 12) was 9.8 ×10^-7 M; in test [2] (parent: est. 5.0), 6 ×10^-7 M; in test [3] (parent: est. 2.3), 2.6 ×10^-8 M.
On to “fucosylated anti-CD20 chimeric IgG1 rituximab with a wild-type Fc region Y296H”, for which the Kd in test [1] (parent: est. 18) was 11 ×10^-7 M; in test [3] (parent: est. 11) it was 11 ×10^-8 M.
Turning to “nonfucosylated anti-CD20 chimeric IgG1 rituximab with a wild-type Fc region Y296R”, the Kd in test [1] (parent: est. 12) is 10 ×10^-7 M; in test [3] (parent: est. 2.3) it was 3.3 ×10^-8 M.
In the case of “nonfucosylated anti-CD20 chimeric IgG1 rituximab with a wild-type Fc region Y296N”, the figures for the Kd in test [1] (parent: est. 12), in test [2] (parent: est. 5.0) and in test [3] (parent: est. 2.3) were 11 ×10^-7 M, 8 ×10^-7 M and 3.2 ×10^-8 M, respectively.
Take “nonfucosylated anti-CD20 chimeric IgG1 rituximab with a wild-type Fc region Y296L”: the Kd in test [1] (parent: est. 12) was 11 ×10^-7 M; in test [2] (parent: est. 5.0), 10 ×10^-7 M; in test [3] (parent: est. 2.3), 2.8 ×10^-8 M.
For “fucosylated anti-CD20 chimeric IgG1 rituximab with a wild-type Fc region Y296T”, the Kd in test [1] (parent: est. 18) is 12 ×10^-7 M; in test [2] (parent: est. 17), 32 ×10^-7 M; in test [3] (parent: est. 11) it was 12 ×10^-8 M.
Take “nonfucosylated anti-CD20 chimeric IgG1 rituximab with a wild-type Fc region Y296H”: the Kd in test [1] (parent: est. 12) was 7.5 ×10^-7 M; in test [2] (parent: est. 5.0) it was 6.5 ×10^-7 M; in test [3] (parent: est. 2.3) it was 3 ×10^-8 M.
With “nonfucosylated anti-CD20 chimeric IgG1 rituximab with a wild-type Fc region Y296Q”, the Kd is 11 ×10^-7 M in test [1] (parent: est. 12), 10 ×10^-7 M in test [2] (parent: est. 5.0) and 3.2 ×10^-8 M in test [3] (parent: est. 2.3).
As for “nonfucosylated anti-CD20 chimeric IgG1 rituximab with a wild-type Fc region Y296P”, the Kd in test [3] (parent: est. 2.3) is 7.4 ×10^-8 M.
With “nonfucosylated anti-CD20 chimeric IgG1 rituximab with a wild-type Fc region Y296C”, the Kd in test [1] (parent: est. 12) was 8 ×10^-7 M; in test [2] (parent: est. 5.0) it was 6.5 ×10^-7 M; in test [3] (parent: est. 2.3) it was 3.3 ×10^-8 M.
The matching figures for “nonfucosylated anti-CD20 chimeric IgG1 rituximab with a wild-type Fc region Y296T”: 9.6 ×10^-7 M, 10 ×10^-7 M and 3 ×10^-8 M.
For the substance “nonfucosylated anti-CD20 chimeric IgG1 rituximab with a wild-type Fc region Y296I”, the dissociation constant (Kd) in test [1] (parent: est. 12) was 10 ×10^-7 M; in test [2] (parent: est. 5.0), 9.5 ×10^-7 M; in test [3] (parent: est. 2.3) it was 3.2 ×10^-8 M.
Consider “nonfucosylated anti-CD20 chimeric IgG1 rituximab with a wild-type Fc region Y296V”, for which the values for the Kd in test [1] (parent: est. 12), in test [2] (parent: est. 5.0) and in test [3] (parent: est. 2.3) were 11 ×10^-7 M, 9 ×10^-7 M and 3 ×10^-8 M, respectively.
As for “fucosylated anti-CD20 chimeric IgG1 rituximab with a wild-type Fc region Y296R”, the Kd in test [1] (parent: est. 18) is 12 ×10^-7 M; in test [2] (parent: est. 17) it was 41 ×10^-7 M; in test [3] (parent: est. 11), 10 ×10^-8 M.
As to “fucosylated anti-CD20 chimeric IgG1 rituximab with a wild-type Fc region Y296S”, the Kd in test [1] (parent: est. 18) was 13 ×10^-7 M; in test [2] (parent: est. 17) it was 30 ×10^-7 M; in test [3] (parent: est. 11) it was 10 ×10^-8 M.
For “fucosylated anti-CD20 chimeric IgG1 rituximab with a wild-type Fc region Y296P”, the Kd in test [3] (parent: est. 11) was 18 ×10^-8 M.
For the substance “nonfucosylated anti-CD20 chimeric IgG1 rituximab with a wild-type Fc region Y296D”, the dissociation constant Kd in test [1] (parent: est. 12) is 9.5 ×10^-7 M; in test [2] (parent: est. 5.0) it was 6 ×10^-7 M; in test [3] (parent: est. 2.3), 2.7 ×10^-8 M.
For the substance “fucosylated anti-CD20 chimeric IgG1 rituximab with a wild-type Fc region Y296I”, the Kd was 12 ×10^-7 M in test [1] (parent: est. 18) and 10 ×10^-8 M in test [3] (parent: est. 11).
“fucosylated anti-CD20 chimeric IgG1 rituximab with a wild-type Fc region Y296F”: the Kd in test [1] (parent: est. 18) is 9.5 ×10^-7 M; in test [2] (parent: est. 17), 21 ×10^-7 M; in test [3] (parent: est. 11), 11 ×10^-8 M.
“nonfucosylated anti-CD20 chimeric IgG1 rituximab with a wild-type Fc region Y296S”: the figures for the Kd in test [1] (parent: est. 12), in test [2] (parent: est. 5.0) and in test [3] (parent: est. 2.3) were 9.2 ×10^-7 M, 11 ×10^-7 M and 3.4 ×10^-8 M, respectively.
With “fucosylated anti-CD20 chimeric IgG1 rituximab with a wild-type Fc region Y296M”, the Kd in test [1] (parent: est. 18) was 13 ×10^-7 M; in test [3] (parent: est. 11) it was 10 ×10^-8 M.
The matching figures for “fucosylated anti-CD20 chimeric IgG1 rituximab with a wild-type Fc region Y296N”: 12 ×10^-7 M and 10 ×10^-8 M.
For “fucosylated anti-CD20 chimeric IgG1 rituximab with a wild-type Fc region Y296Q”, the Kd in test [1] (parent: est. 18) was 11 ×10^-7 M; in test [2] (parent: est. 17) it was 27 ×10^-7 M; in test [3] (parent: est. 11), 9.6 ×10^-8 M.
The matching figures for “fucosylated anti-CD20 chimeric IgG1 rituximab with a wild-type Fc region Y296C”: 10 ×10^-7 M, 17 ×10^-7 M and 9.8 ×10^-8 M.
On to “nonfucosylated anti-CD20 chimeric IgG1 rituximab with a wild-type Fc region Y296M”, for which the Kd was 11 ×10^-7 M in test [1] (parent: est. 12), 9.5 ×10^-7 M in test [2] (parent: est. 5.0) and 3.2 ×10^-8 M in test [3] (parent: est. 2.3).
Consider “fucosylated anti-CD20 chimeric IgG1 rituximab with a wild-type Fc region Y296L”, for which the Kd in test [1] (parent: est. 18) was 9 ×10^-7 M; in test [3] (parent: est. 11), 11 ×10^-8 M.
In the case of “fucosylated anti-CD20 chimeric IgG1 rituximab with a wild-type Fc region Y296G”, the Kd was 13 ×10^-7 M in test [1] (parent: est. 18), 56 ×10^-7 M in test [2] (parent: est. 17) and 14 ×10^-8 M in test [3] (parent: est. 11).
Turning to “fucosylated anti-CD20 chimeric IgG1 rituximab with a wild-type Fc region Y296E”, the Kd in test [1] (parent: est. 18) was 11 ×10^-7 M; in test [2] (parent: est. 17), 20 ×10^-7 M; in test [3] (parent: est. 11), 12 ×10^-8 M.
For “fucosylated anti-CD20 chimeric IgG1 rituximab with a wild-type Fc region Y296V”, the Kd in test [1] (parent: est. 18) was 14 ×10^-7 M; in test [3] (parent: est. 11), 10 ×10^-8 M.
